1 molecule from PMC7656253, “Recovery of motor function of chronic spinal cord injury by extracellular pyruvate kinase isoform M2 and the underlying mechanism” (Scientific Reports, 2020) can be followed below.

This experiment deals with T1, Recombinant human valosin-containing protein (VCP) (human, UniProt P55072 1-806).
T1 construct: valosin-containing protein (VCP), human, recombinant; Commercial protein; The supplier is printed as 'Abnoba', probably Abnova; No catalogue number or tag is printed; also called recombinant VCP; source: bought: Abnoba, Taipei, Taiwan
T1 sequence (P55072 whole entry): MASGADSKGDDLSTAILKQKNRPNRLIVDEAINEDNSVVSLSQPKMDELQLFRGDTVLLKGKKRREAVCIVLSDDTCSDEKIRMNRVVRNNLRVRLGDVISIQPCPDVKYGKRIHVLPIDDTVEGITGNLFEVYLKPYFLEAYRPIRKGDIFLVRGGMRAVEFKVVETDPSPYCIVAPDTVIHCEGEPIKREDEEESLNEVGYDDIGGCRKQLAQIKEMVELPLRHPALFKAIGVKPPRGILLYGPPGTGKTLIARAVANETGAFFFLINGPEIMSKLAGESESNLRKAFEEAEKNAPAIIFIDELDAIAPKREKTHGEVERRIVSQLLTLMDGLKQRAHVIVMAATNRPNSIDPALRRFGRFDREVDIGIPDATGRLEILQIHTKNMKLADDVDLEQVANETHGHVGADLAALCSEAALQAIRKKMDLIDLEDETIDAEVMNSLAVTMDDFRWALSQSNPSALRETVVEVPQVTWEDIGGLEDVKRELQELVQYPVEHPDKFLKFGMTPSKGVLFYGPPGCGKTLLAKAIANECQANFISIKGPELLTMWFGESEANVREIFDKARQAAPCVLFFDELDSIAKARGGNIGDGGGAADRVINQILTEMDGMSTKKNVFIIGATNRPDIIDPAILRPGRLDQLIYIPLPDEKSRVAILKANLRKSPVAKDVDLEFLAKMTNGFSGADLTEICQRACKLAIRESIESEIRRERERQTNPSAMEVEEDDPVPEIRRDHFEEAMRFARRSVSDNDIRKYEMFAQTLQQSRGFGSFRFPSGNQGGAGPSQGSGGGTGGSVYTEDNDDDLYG
Briefly: co-IP; recombinant mouse PKM2 (100 pmol) and recombinant human VCP (10 pmol) coincubated 1 h at 25 °C; precipitated with rabbit anti-PKM2 antibody or normal mouse IgG cross-linked to Dynabeads Protein G, 2 h at 25 °C; Western blot for PKM2 and VCP. Conditions: both partners purified. Background: In western blotting, separated proteins are transferred to a membrane and probed.

B1: Recombinant mouse pyruvate kinase isoform M2 (PKM2) (enzyme)
chain: not shown
notes: pyruvate kinase isoform M2 (PKM2), mouse, recombinant; Commercial protein; No catalogue number, expression host or tag is printed; also called recombinant PKM2; extracellular PKM2; source: bought: Abcam
Regarding B1, the binding result is listed as “binds”.
